Experimental data as given in patent US20250090676A1 (SUTRO BIOPHARMA, published 2025).
Residue numbers refer to the chain shown, from its start.

Experiments:
[1] = target: T1, cynomolgus monkey folate receptor alpha (cynomolgus monkey, UniProt P15328 25-234 (human entry)); test: FACS, CHO-cFOLR1 cells
T1 construct: Expressed on the surface of stably transfected CHO cells; also called cyno FolR1; CHO-cyno FolR1
Experimental: CHO cells were transfected to stably express human (CHO-hFOLR1), cynomolgus (CHO-cFOLR1), or mouse (CHO-mFOLR1) target molecule FOLR1 on the cell surface. Parental CHO cells were used as a negative control to determine background binding levels. Parental CHO and stably transfected CHO-hFOLR1, CHO-cFOLR1, and CHO-mFOLR1 cells were cultured in Ham's F-12: high glucose DMEM (50:50) (Corning, Cellgro-Mediatech) supplemented with 10% heat-inactivated fetal bovine serum (Corning, Cellgro-Mediatech), 1% Penicillin/Streptomycin (Corning, Cellgro-Mediatech) and 2 mmol/L-glutamax (Life Technology).
A mixture of fluoresecent-labeled parental CHO cells and unlabeled CHO-hFOLRlcells were prepared as follows. Parental CHO cells were washed twice in PBS and incubated in PBS containing with 1 nM CellTrace™ Oregon Green488® (Life Technologies) at 37° C. for 30 minutes. Labeled parental CHO cells were then washed 2× with Ham's F-12 media and 2× with FACS buffer (PBS with 1% bovine serum albumin). Unlabeled CHO-hFOLR1 cells were similarly washed and prepared. Labeled parental CHO and unlabeled CHO-hFOLR1 cells were combined at 1:1 ratio and seeded at 50 μL per well (200,000 cells per well) in 96 well polypropylene plates. Cells were mixed with 50 μL of test antibodies (i.e., anti-FOLR1 variants) serially diluted in FACS buffer and incubated on ice for 60 mins. […] Data were analyzed using FlowJo® software (FlowJo, LLC; Ashland, OR) to determine mean fluorescence intensities. Binding constants were calculated using the statistical software, GraphPad Prism (GraphPad Software; La Jolla, CA) using the nonlinear regression equation, one site-specific binding with Hill slope. Secondary antibody alone was used as a control, in addition to measuring non-specific antibody binding to CHO parental cells.

[2] = target: T2, human folate receptor alpha (hFOLR1) (human, UniProt P15328 25-234); test: FACS, CHO-hFOLR1 cells;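 further: flow cytometry of serially diluted antibodies binding CHO cells stably expressing the receptor, 60 min on ice, mixed with dye-tagged parental CHO as background control, one-site specific fit with Hill slope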
T2 construct: endogenous on FOLR1-positive KB and Igrov1 cells (cell killing); also called human FolR1; FolRα

[3] = target: T3, murine folate receptor alpha (mouse, UniProt P35846 25-232); test: FACS, CHO-mFOLR1 cells;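 further: flow cytometry binding of serially diluted test antibodies to transfected CHO cells on ice, mean fluorescence intensity, parental CHO cells give background, Kd from one-site specific binding fit with Hill slope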
T3 construct: Expressed on the surface of stably transfected CHO cells; also called mouse FolR1; CHO-mouse FolR1

[4] = target: T2, human folate receptor alpha (hFOLR1); test: cell-based or functional assay

T3 sequence (P35846 25-232 limits assumed): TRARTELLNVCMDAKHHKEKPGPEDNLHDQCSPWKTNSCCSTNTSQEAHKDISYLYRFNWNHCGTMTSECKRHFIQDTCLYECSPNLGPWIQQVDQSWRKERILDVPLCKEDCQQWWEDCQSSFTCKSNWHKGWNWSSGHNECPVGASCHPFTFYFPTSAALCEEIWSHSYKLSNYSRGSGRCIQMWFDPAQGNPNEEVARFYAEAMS
T2 sequence (P15328 25-234 limits assumed): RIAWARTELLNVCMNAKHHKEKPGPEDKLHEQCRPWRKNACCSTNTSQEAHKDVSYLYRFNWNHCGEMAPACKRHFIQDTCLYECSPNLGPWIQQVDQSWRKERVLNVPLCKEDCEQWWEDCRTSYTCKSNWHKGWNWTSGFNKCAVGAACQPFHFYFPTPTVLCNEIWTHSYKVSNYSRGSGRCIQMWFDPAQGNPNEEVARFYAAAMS
T1 sequence (P15328 other isoform, or with tags, fused parts or gaps limits assumed): as the sequence (P15328 25-234 limits assumed) above, with I2T, W4R, R37K, Q117R, A146P, H171Y counted along it

B1: SRP1848-D07 (antibody, V domains shown)
VH: EVQLVESGGGLVQPGGSLRLSCAASGFNISKYYIHWVRQAPGKGLEWVGGISPNDGYTDYADSVKGRFAISADTSKNTAYLQMNSLRAEDTAVYYCARGFWAWRSGYGYYLDYWGQGTLVTVSS
VL: not shown
notes: HC variant paired with trastuzumab LC, cell-free expressed, HIS- and FLAG-tagged; also called Antibody 28
[1]
  Bmax (MFI): 24300 MFI
  Kd: 0.92 nM
[2]
  Bmax (MFI): 25700 MFI
  Kd: 0.77 nM
[3]
  binding result: no binding
[4]
  Igrov, 2° Antibody Cell Killing, Nb-SC239: EC50: 0.032 nM
  Igrov, 2° Antibody Cell Killing, Nb-SC239: Span: 71%
  KB, 2° Antibody Cell Killing, Nb-239: EC50: 0.075 nM
  KB, 2° Antibody Cell Killing, Nb-239: Span: 94%

B2: SRP1848-F01 (antibody, V domains shown)
VH: B1 VH with S30R, K31T, Y33S, G50S, S52F, Y57T, A69T, F100S, S105A, G108S
VL: not shown
notes: HC variant paired with trastuzumab LC, cell-free expressed, HIS- and FLAG-tagged; also called Antibody 37
[1]
  Bmax (MFI): 21500 MFI
  Kd: 0.43 nM
[2]
  Bmax (MFI): 25200 MFI
  Kd: 0.56 nM
[3]
  Bmax (MFI): 3750 MFI
  Kd: 1.8 nM
[4]
  Igrov, 2° Antibody Cell Killing, Nb-SC239: EC50: 0.018 nM
  Igrov, 2° Antibody Cell Killing, Nb-SC239: Span: 69%
  KB, 2° Antibody Cell Killing, Nb-239: EC50: 0.047 nM
  KB, 2° Antibody Cell Killing, Nb-239: Span: 91%

B3: SRP1848-D09 (antibody, V domains shown)
VH: B1 VH with K31N, A69T, F100S, A102S, S105H
VL: not shown
notes: HC variant paired with trastuzumab LC, cell-free expressed, HIS- and FLAG-tagged; also called Antibody 29
[1]
  Bmax (MFI): 21300 MFI
  Kd: 0.65 nM
[2]
  Bmax (MFI): 25000 MFI
  Kd: 0.46 nM
[3]
  binding result: no binding
[4]
  Igrov, 2° Antibody Cell Killing, Nb-SC239: EC50: 0.023 nM
  Igrov, 2° Antibody Cell Killing, Nb-SC239: Span: 70%
  KB, 2° Antibody Cell Killing, Nb-239: EC50: 0.042 nM
  KB, 2° Antibody Cell Killing, Nb-239: Span: 91%

B4: SRP1848-E05 (antibody, V domains shown)
VH: B1 VH with L20V, S30G, K31V, S52T, A69T
VL: not shown
notes: HC variant paired with trastuzumab LC, cell-free expressed, HIS- and FLAG-tagged; also called Antibody 34
[1]
  Bmax (MFI): 28200 MFI
  Kd: 0.55 nM
[2]
  Bmax (MFI): 27300 MFI
  Kd: 0.46 nM
[3]
  binding result: no binding
[4]
  Igrov, 2° Antibody Cell Killing, Nb-SC239: EC50: 0.027 nM
  Igrov, 2° Antibody Cell Killing, Nb-SC239: Span: 78%
  KB, 2° Antibody Cell Killing, Nb-239: EC50: 0.071 nM
  KB, 2° Antibody Cell Killing, Nb-239: Span: 95%

B5: SRP1848-F02 (antibody, V domains shown)
VH: EVQLVESGGGLVQPGGSLRLSCAASGFNIRTYSIHWVRQAPGKGLEWVGSIFPNDGTTDYADSVKGRLTISADTSKNTAYLQMNSLRAEDTAVYYCARGSWSWQAGYGYYLDYWGQGTLVTVSS
VL: not shown
notes: HC variant paired with trastuzumab LC, cell-free expressed, HIS- and FLAG-tagged; also called Antibody 38
[1]
  Bmax (MFI): 14900 MFI
  Kd: 0.19 nM
[2]
  Bmax (MFI): 25700 MFI
  Kd: 0.62 nM
[3]
  Bmax (MFI): 2740 MFI
  Kd: 2.6 nM
[4]
  Igrov, 2° Antibody Cell Killing, Nb-SC239: EC50: 0.009 nM
  Igrov, 2° Antibody Cell Killing, Nb-SC239: Span: 54%
  KB, 2° Antibody Cell Killing, Nb-239: EC50: 0.054 nM
  KB, 2° Antibody Cell Killing, Nb-239: Span: 92%

B6: SRP1848-E02 (antibody, V domains shown)
VH: B5 VH with R30G, T31K, S50E, F52Y, T57N, L68F, Q104R, A105S
VL: not shown
notes: HC variant paired with trastuzumab LC, cell-free expressed, HIS- and FLAG-tagged; also called SKP1848-E02; Antibody 32
[1]
  Bmax (MFI): 18700 MFI
  Kd: 0.59 nM
[2]
  Bmax (MFI): 23800 MFI
  Kd: 0.53 nM
[3]
  Bmax (MFI): 1470 MFI
  Kd: 21 nM
[4]
  Igrov, 2° Antibody Cell Killing, Nb-SC239: EC50: 0.025 nM
  Igrov, 2° Antibody Cell Killing, Nb-SC239: Span: 71%
  KB, 2° Antibody Cell Killing, Nb-239: EC50: 0.046 nM
  KB, 2° Antibody Cell Killing, Nb-239: Span: 93%

B7: SRP1848-F07 (antibody, V domains shown)
VH: EVQLVESGGGLVQPGGSLRLSCAASGFNISNHSIHWVRQAPGKGLEWVGEIYPNDGITDYADSVKGRFTISADTSKNTAYLQMNSLSAEDTAVYYCARGSWDWRSGYSYYLDYWGQGTLVTVSS
VL: not shown
notes: HC variant paired with trastuzumab LC, cell-free expressed, HIS- and FLAG-tagged; also called Antibody 42
[1]
  Bmax (MFI): 18700 MFI
  Kd: 0.56 nM
[2]
  Bmax (MFI): 27400 MFI
  Kd: 0.58 nM
[3]
  Bmax (MFI): 1390 MFI
  Kd: 8.8 nM
[4]
  Igrov, 2° Antibody Cell Killing, Nb-SC239: EC50: 0.018 nM
  Igrov, 2° Antibody Cell Killing, Nb-SC239: Span: 71%
  KB, 2° Antibody Cell Killing, Nb-239: EC50: 0.057 nM
  KB, 2° Antibody Cell Killing, Nb-239: Span: 92%

B8: SRP1848-E07 (antibody, V domains shown)
VH: EVQLVESGGGLVQPGGSLRLSCAASGFNIRKSSIHWVRQAPGKGLEWVGEIFPYDGSTDYADNVKGRFTISADTSKNTAYLQMNSLRAEDTAVYYCARGAWSWRSGYGYYIDYWGQGTLVTVSS
VL: not shown
notes: HC variant paired with trastuzumab LC, cell-free expressed, HIS- and FLAG-tagged; also called Antibody 36
[1]
  Bmax (MFI): 20400 MFI
  Kd: 0.23 nM
[2]
  Bmax (MFI): 27300 MFI
  Kd: 0.54 nM
[3]
  Bmax (MFI): 11800 MFI
  Kd: 1.2 nM
[4]
  Igrov, 2° Antibody Cell Killing, Nb-SC239: EC50: 0.013 nM
  Igrov, 2° Antibody Cell Killing, Nb-SC239: Span: 73%
  KB, 2° Antibody Cell Killing, Nb-239: EC50: 0.059 nM
  KB, 2° Antibody Cell Killing, Nb-239: Span: 94%

B9: SRP1848-F05 (antibody, V domains shown)
VH: B7 VH with N31K, H32S, I57S, S87R, D102A, Y110F
VL: not shown
notes: HC variant paired with trastuzumab LC, cell-free expressed, HIS- and FLAG-tagged; also called Antibody 40
[1]
  Bmax (MFI): 24700 MFI
  Kd: 0.61 nM
[2]
  Bmax (MFI): 27200 MFI
  Kd: 0.72 nM
[3]
  Bmax (MFI): 5100 MFI
  Kd: 18 nM
[4]
  Igrov, 2° Antibody Cell Killing, Nb-SC239: EC50: 0.015 nM
  Igrov, 2° Antibody Cell Killing, Nb-SC239: Span: 74%
  KB, 2° Antibody Cell Killing, Nb-239: EC50: 0.061 nM
  KB, 2° Antibody Cell Killing, Nb-239: Span: 94%

B10: SRP1848-F09 (antibody, V domains shown)
VH: B1 VH with K31N, Y32H, N54L, A69T, F100A, A102S, L111I
VL: not shown
notes: HC variant paired with trastuzumab LC, cell-free expressed, HIS- and FLAG-tagged; also called Antibody 44
[1]
  Bmax (MFI): 24200 MFI
  Kd: 0.75 nM
[2]
  Bmax (MFI): 23800 MFI
  Kd: 0.36 nM
[3]
  Bmax (MFI): 1670 MFI
  Kd: 90.7 nM
[4]
  Igrov, 2° Antibody Cell Killing, Nb-SC239: EC50: 0.05 nM
  Igrov, 2° Antibody Cell Killing, Nb-SC239: Span: 79%
  KB, 2° Antibody Cell Killing, Nb-239: EC50: 0.056 nM
  KB, 2° Antibody Cell Killing, Nb-239: Span: 93%

B11: SRP1848-E01 (antibody, V domains shown)
VH: EVQLVESGGGLVQPGGSLRLSCAASGFNITNKYIHWVRQAPGKGLEWVGGITPFDGFTDYADSVKGRFTISADTSKNTAYLQMNSLRAEDTAVYYCARGSWSWPAGYGYYQDYWGQGTLVTVSS
VL: not shown
notes: HC variant paired with trastuzumab LC, cell-free expressed, HIS- and FLAG-tagged; also called Antibody 31
[1]
  Bmax (MFI): 22400 MFI
  Kd: 0.96 nM
[2]
  Bmax (MFI): 26400 MFI
  Kd: 1.01 nM
[3]
  binding result: no binding
[4]
  Igrov, 2° Antibody Cell Killing, Nb-SC239: EC50: 0.029 nM
  Igrov, 2° Antibody Cell Killing, Nb-SC239: Span: 72%
  KB, 2° Antibody Cell Killing, Nb-239: EC50: 0.088 nM
  KB, 2° Antibody Cell Killing, Nb-239: Span: 92%

B12: SRP1848-F06 (antibody, V domains shown)
VH: B1 VH with K31L, Y32S, N54I, Y57N, A69T
VL: not shown
notes: HC variant paired with trastuzumab LC, cell-free expressed, HIS- and FLAG-tagged; also called Antibody 41
[1]
  Bmax (MFI): 26500 MFI
  Kd: 0.86 nM
[2]
  Bmax (MFI): 25600 MFI
  Kd: 0.87 nM
[3]
  binding result: no binding
[4]
  Igrov, 2° Antibody Cell Killing, Nb-SC239: EC50: 0.032 nM
  Igrov, 2° Antibody Cell Killing, Nb-SC239: Span: 77%
  KB, 2° Antibody Cell Killing, Nb-239: EC50: 0.066 nM
  KB, 2° Antibody Cell Killing, Nb-239: Span: 94%

B13: SRP1848-F08 (antibody, V domains shown)
VH: B7 VH with S25G, L45V, N54V, Q82R, S87R, D102Y, R104Q
VL: not shown
notes: HC variant paired with trastuzumab LC, cell-free expressed, HIS- and FLAG-tagged; also called Antibody 43
[1]
  Bmax (MFI): 21000 MFI
  Kd: 1.07 nM
[2]
  Bmax (MFI): 26500 MFI
  Kd: 0.91 nM
[3]
  binding result: no binding
[4]
  Igrov, 2° Antibody Cell Killing, Nb-SC239: EC50: 0.024 nM
  Igrov, 2° Antibody Cell Killing, Nb-SC239: Span: 77%
  KB, 2° Antibody Cell Killing, Nb-239: EC50: 0.061 nM
  KB, 2° Antibody Cell Killing, Nb-239: Span: 94%

B14: SRP1848-D10 (antibody, V domains shown)
VH: B8 VH with R30S, K31R, S32N, E50W, F52S, Y54N, S57T, N63S, T74G
VL: not shown
notes: HC variant paired with trastuzumab LC, cell-free expressed, HIS- and FLAG-tagged; also called Antibody 30
[1]
  Bmax (MFI): 20600 MFI
  Kd: 0.52 nM
[2]
  Bmax (MFI): 26500 MFI
  Kd: 0.48 nM
[3]
  Bmax (MFI): 1860 MFI
  Kd: 13 nM
[4]
  Igrov, 2° Antibody Cell Killing, Nb-SC239: EC50: 0.012 nM
  Igrov, 2° Antibody Cell Killing, Nb-SC239: Span: 54%
  KB, 2° Antibody Cell Killing, Nb-239: EC50: 0.016 nM
  KB, 2° Antibody Cell Killing, Nb-239: Span: 90%
